In patent US20220227882A1 (TRUSTEES OF TUFTS COLLEGE, published 2022):

Target: T1, Recombinant human ADAM9 (R&D Systems, 939-AD-020) (human, UniProt Q13443 29-697)
T1 sequence (looked up): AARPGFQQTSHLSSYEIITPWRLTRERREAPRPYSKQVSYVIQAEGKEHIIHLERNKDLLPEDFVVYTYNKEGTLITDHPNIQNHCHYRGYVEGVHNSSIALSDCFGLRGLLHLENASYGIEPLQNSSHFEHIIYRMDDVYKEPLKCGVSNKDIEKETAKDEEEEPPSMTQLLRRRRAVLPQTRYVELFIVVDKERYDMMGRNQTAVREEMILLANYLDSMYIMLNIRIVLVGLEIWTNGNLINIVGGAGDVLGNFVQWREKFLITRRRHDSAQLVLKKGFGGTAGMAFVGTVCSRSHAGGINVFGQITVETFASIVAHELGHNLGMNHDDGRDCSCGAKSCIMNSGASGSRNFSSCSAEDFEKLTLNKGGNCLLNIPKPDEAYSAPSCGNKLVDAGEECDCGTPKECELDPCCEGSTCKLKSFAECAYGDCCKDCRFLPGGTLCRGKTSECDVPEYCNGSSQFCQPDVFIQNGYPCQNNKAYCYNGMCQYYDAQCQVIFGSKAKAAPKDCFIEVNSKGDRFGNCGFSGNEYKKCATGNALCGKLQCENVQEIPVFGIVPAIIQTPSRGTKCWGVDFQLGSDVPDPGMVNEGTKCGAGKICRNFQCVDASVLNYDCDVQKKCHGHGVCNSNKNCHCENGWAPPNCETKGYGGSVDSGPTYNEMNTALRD
Experiment: ELISA, recombinant ADAM9
Method: ELISA assays were also used to test hybridoma clones, subclones and purified ADP antibodies for specificity of ADAM8 binding, i.e., binding to rHuADAM8 (Acro Biosystems, AD8-H5223) was compared to binding to closely related recombinant human ADAM proteins: […], ADAM12 (Acro Biosystems, AD2-H5228) and ADAM15 (Sino Biological, 10517-H08H). For analysis of clones and subclones, 50 μl of cell supernatants were used. A test bleed sample (1:1000) was used as a positive control. Hybridoma culture medium or a pre-bleed serum sample (1:1000) was used as a negative control. Purified mouse ADPs were assessed at 1 μg/ml vs normal mouse IgG and with a test bleed sample as a positive control. ADP binding was detected with a goat anti-mouse IgG (Fc specific)-peroxidase antibody (1:5000, Sigma-Aldrich, A0168).

B1: ADP3 (antibody, IgG1, V domains shown)
VH: EVKLEESGGGLVQPGGSMKLSCAASGFTFSDAWMDWVRQSPEKGLEWVAEIRGKVNNLATYYVESVKGRFTISRDDSKSSVYLQMNSLRAEDTGIYYCLGRYDATYAMDYWGQGTSVTVSS
VL: DVVMTQTPLSLPVSLGDQASISCRSSQSLVHSDGNTYLHWYLQKPGQSPKLLIYKLSNRFSGVPDRFSGSGSGTDFTLKISRVEAEDLGVYFCSQSTHVPWTFGGGTKLEIK
B1: no binding (tested: 1 µg/ml).
